Two molecules from publication PMC12775124, “CUL4A-DDB1-DCAF10 is an N-recognin for N-terminally acetylated Src kinases” (Nature Communications, 2026) can be followed below.

The subject of experiment [1] is Lyn. Kind of experiment: Lyn level after FLAG-DCAF10 overexpression. It counts as cell-based, human. Conditions: HeLa, NMT1/2 KD 72 h, FLAG-DCAF10 overexpression 24 h. The procedure:
(§1) 124 Supplementary Fig. 5. NMT1/2 knockdown leads to an increased turnover of SFKs
(§2) 125 and overexpression of DCAF10 reduces SFK levels after NMT1/2 knockdown.
(§3) 126 a) HeLa cells were treated with NMT1/2 siRNA for 72 h or left untreated in combination
(§4) 127 with FLAG-DCAF10 overexpression for 24 h. Representative WBs are shown. b-c) Left:
(§5) 128 WB quantifications with and without NMT1/2 siRNA of Lyn (b) and THOC7 (c)
(§6) Right: Fold change of Lyn (b) and THOC7 (c) after DCAF10
(§7) 130 overexpression. Untreated: purple; with NMT1/2 RNAi: blue. Individual data points are
(§8) 131 indicated (n = 2 or 3 independent biological replicates). MG132 = proteasome inhibitor;
(§9) 132 CHX = cycloheximide translational inhibitor. d) HeLa cells were treated for 72 h with and
(§10) 133 without NMT1/2 siRNA and treated with cycloheximide or MG132 for the indicated
(§11) 134 periods of time. Representative WBs are shown. Filled circles indicate treatment; empty
(§12) 135 circles indicate no treatment. e-h) Fold-change analysis of protein expression levels under
(§13) 136 the indicated conditions. Left: fold change after 8 h cycloheximide treatment of (e) Lyn,
(§14) 137 (f) Fyn, (g) Src and (h) THOC7. Right: fold change after 4 h MG132 treatment of (e) Lyn,
(§15) Untreated: purple; with NMT1/2 siRNA: blue (n = 3 […]
(§16) 412 serum (FBS). Cells were counted and diluted to 100,000 cells/mL. […]
(§17) 433 fraction was measured by MS (see Mass spectrometry measurements and raw file […]

The subject of a further experiment is THOC7. In words: THOC7 level after FLAG-DCAF10 overexpression. Conditions: HeLa, NMT1/2 KD 72 h, FLAG-DCAF10 overexpression 24 h. It counts as cell-based, human. The procedure: as §1, §2, §3, §4, §5, §6, §7, §8, §9, §10, §11, §12, §13, §14, §15, §16, §17
In experiment [2] the test system is Lyn. Kind of experiment: In vitro ubiquitination of immunoprecipitated Lyn. It counts as biochemical, human. Conditions: DCAF10 pocket mutant complex. The source says: (§18) Having established cellular regulation by DCAF10 under reduced N-myristoylation, we aimed to test whether CUL4A-DDB1-DCAF10 directly ubiquitinates SFKs. […] As we expect NMT1/2 depletion to cause a destabilization of SFKs, their equal or even greater ubiquitination in IPs from untreated cells relative to NMT1/2-depleted cells was unanticipated. We speculate that (i) Nt-acetylated SFKs may degrade rapidly, preventing their accumulation upon NMT1/2 depletion; (ii) an acetylated fraction of SFKs may exist under physiological conditions; (iii) DCAF10 might recognize additional surfaces.
(§19) Reactions contained E1, UBCH5B (E2), ubiquitin, Mg-ATP in ligation buffer and were incubated with bead-bound substrates, followed by washing and immunoblot detection of ubiquitinated species (anti-ubiquitin), with loading controls (anti-Lyn, -Fyn, -Src or -GFP) (n = 3 independent enzymatic assays). Complete reagent lists, complex preparation, substrate IP conditions, wash buffers, and gel/blot parameters are provided in the Supplementary Methods and Tables.
(§20) 357 (v/v) glycerol, 2 mM TCEP, supplemented with Protease Inhibitor Cocktail), and lysed
(§21) 358 by sonication. Lysates were cleared by centrifugation at 28,000 rpm for 45 min at 4 °C […]
(§22) 382 EDTA, and loaded on a gradient gel (4–15%). Ubiquitination of substrates was assessed
(§23) 383 by WB using an anti-ubiquitin antibody. Equal substrate loading was evaluated by anti- […]

For a further experiment, the system named is Fyn. In words: In vitro ubiquitination of immunoprecipitated Fyn. It counts as biochemical, human. To be noted: DCAF10 pocket mutant complex.
Source text: as §18, §19, §20, §21, §22, §23

For the next experiment, the system named is Src. Kind of experiment: In vitro ubiquitination of immunoprecipitated Src. It counts as biochemical, human. Conditions: DCAF10 pocket mutant complex.
Source text: as §18, §19, §20, §21, §22, §23

B1: FLAG-DCAF10: FLAG-DCAF10 overexpression in HeLa cells (protein, UniProt Q5QP82 1-559, looked up)
DDB1- and CUL4-associated …: MFPFGPHSPGGDGSAGAGAEEPTPHEGQAAATGPPSPLHPGADATHPPPPARSPRRPGAPSLSPAPRSGELGLPGAPESSTASAPGEPSPPSPPCRRPGPDCRAKSRGRHGLGAGLGGPGARLFGWLKERSLGRGLFVDPARDNFRTMTSLYGSIHPADSVYLSTRTHGAVFNLEYSPDGSVLTVACEQTEVLLFDPISSKHIKTLSEAHEDCVNNIRFLDNRLFATCSDDTTIALWDLRKLNTKVCTLHGHTSWVKNIEYDTNTRLLVTSGFDGNVIIWDTNRYTEDGCPHKKFFHTRFLMRMRLTPDCSKMLISTSSGYLLILHDLDLTKSLEVGSYPILRARRTTSSSDLTTSSSSSGPRVSGSPCHHSDSNSSEKHMSRASQREGVSPRNSLEVVTPEVLGESDHGNCITSLQLHPKGWATLLRCSSNSDDEECTCVYEFQEGAPVRPVSPRCSLRLTHYIEEANVGRGYIKELCFSPDGRMISSPHGYGIRLLGFDKQCSELVDCLPKEASPLRVIRSLYSHNDVVLTTKFSPTHCQIASGCLSGRVSLYQPKF
modifications: FLAG tag
notes: FLAG-DCAF10 overexpression in HeLa cells
On to B1, for which the “Lyn level, fold decrease compared to control cells” value in the experiment on Lyn [1] is ~ 2.1 fold. Besides, the “THOC7 level (in words)” value in the experiment on THOC7 is recorded as “remained unchanged”.

B2: DCAF10 triple mutant: DCAF10 triple mutant (F172G, K257A, and I475G) in E3 complex (protein)
chain: MFPFGPHSPGGDGSAGAGAEEPTPHEGQAAATGPPSPLHPGADATHPPPPARSPRRPGAPSLSPAPRSGELGLPGAPESSTASAPGEPSPPSPPCRRPGPDCRAKSRGRHGLGAGLGGPGARLFGWLKERSLGRGLFVDPARDNFRTMTSLYGSIHPADSVYLSTRTHGAVGNLEYSPDGSVLTVACEQTEVLLFDPISSKHIKTLSEAHEDCVNNIRFLDNRLFATCSDDTTIALWDLRKLNTKVCTLHGHTSWVANIEYDTNTRLLVTSGFDGNVIIWDTNRYTEDGCPHKKFFHTRFLMRMRLTPDCSKMLISTSSGYLLILHDLDLTKSLEVGSYPILRARRTTSSSDLTTSSSSSGPRVSGSPCHHSDSNSSEKHMSRASQREGVSPRNSLEVVTPEVLGESDHGNCITSLQLHPKGWATLLRCSSNSDDEECTCVYEFQEGAPVRPVSPRCSLRLTHYIEEANVGRGYGKELCFSPDGRMISSPHGYGIRLLGFDKQCSELVDCLPKEASPLRVIRSLYSHNDVVLTTKFSPTHCQIASGCLSGRVSLYQPKF
modifications: left off: MBP (as in the WT complex; not said for the mutant), end not stated, state not stated
With B2, the “Lyn ubiquitination (in words)” value with Lyn [2] is “abolished ubiquitination of Lyn and Fyn”. Moreover, the “Fyn ubiquitination (in words)” value in the experiment on Fyn was “abolished ubiquitination of Lyn and Fyn”. Moreover, the “Src ubiquitination (in words)” value with Src is “Src ubiquitination was unaffected by the mutations”.
